# Measured values as given in US20180355043A1 (Janssen / Centocor, published 2018).
# T1: DR4G113: Human HRA-DPA1*03/DPB1*04:01 ECD with NY-ESO peptide NY-ESO_157-169 (human)
# T1 construct: also called HLA-DP; DP4:01
# T1 MHC II alpha: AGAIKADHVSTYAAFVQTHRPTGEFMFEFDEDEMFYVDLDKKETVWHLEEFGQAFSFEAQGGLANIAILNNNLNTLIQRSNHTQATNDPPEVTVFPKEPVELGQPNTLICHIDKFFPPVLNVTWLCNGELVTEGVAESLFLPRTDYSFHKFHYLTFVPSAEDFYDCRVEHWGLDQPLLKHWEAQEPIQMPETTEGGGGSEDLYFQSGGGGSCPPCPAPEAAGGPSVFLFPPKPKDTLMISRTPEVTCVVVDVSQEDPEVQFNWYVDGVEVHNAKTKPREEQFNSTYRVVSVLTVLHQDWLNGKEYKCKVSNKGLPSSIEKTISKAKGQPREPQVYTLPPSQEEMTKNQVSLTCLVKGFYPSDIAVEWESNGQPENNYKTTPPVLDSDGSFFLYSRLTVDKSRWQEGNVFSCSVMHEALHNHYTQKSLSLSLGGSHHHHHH
# T1 MHC II beta: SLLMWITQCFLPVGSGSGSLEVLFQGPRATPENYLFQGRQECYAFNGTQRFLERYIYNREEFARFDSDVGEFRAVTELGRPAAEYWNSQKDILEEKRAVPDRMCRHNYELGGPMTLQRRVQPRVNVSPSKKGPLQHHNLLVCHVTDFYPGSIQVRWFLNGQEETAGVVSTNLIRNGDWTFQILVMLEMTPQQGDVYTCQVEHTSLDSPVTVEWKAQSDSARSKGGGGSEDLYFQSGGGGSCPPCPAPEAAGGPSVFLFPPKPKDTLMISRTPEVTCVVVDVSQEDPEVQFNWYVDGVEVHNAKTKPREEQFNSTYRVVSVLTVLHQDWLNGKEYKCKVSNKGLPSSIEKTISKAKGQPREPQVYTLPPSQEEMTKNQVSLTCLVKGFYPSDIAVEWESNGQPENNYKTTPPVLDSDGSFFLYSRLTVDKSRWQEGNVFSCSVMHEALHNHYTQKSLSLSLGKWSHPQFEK
# Legend:
# [1] = molecular target: T1, DR4G113: Human HRA-DPA1*03/DPB1*04:01 …; assay: MSD ECL; antigen coated; mAb 5 µg/ml
# [2] = molecular target: T2, DR4G111: Human HLA-DQA1*01:02/DQB1*06:02 ECD with insulin peptide INS_1-15 (human); assay: MSD ECL; antigen coated; mAb 5 µg/ml
# T2 construct: also called DQB6:02
# [3] = molecular target: DR4G90: Human HLA-DRA1*01:02/DRB1*04:01 ECD with collagen II peptide CII_1236-1249 (human); assay: MSD ECL; antigen coated; mAb 0.2 µg/ml
# [4] = molecular target: T3, DR4G99: Human HLA-DRA1*01:02/DRB1*01:01 ECD with collagen peptide CII_1236-1249 (human); assay: MSD ECL; antigen coated; mAb 0.2 µg/ml
# T3 construct: also called DRG99
# [5] = molecular target: T1, DR4G113: Human HRA-DPA1*03/DPB1*04:01 …; assay: MSD ECL; antigen coated
# [6] = molecular target: T2, DR4G111: Human …; assay: MSD ECL; antigen coated
binder,measurement,setting,value
"DR4B22 (antibody, human IgG2, kappa, V domains shown, also called VH DR4H16 / VL PH9L3) VH: EVQLLESGGGLVQPGGSLRLSCAASGFTFSSYAMNWVRQAPGKGLEWVSAISGSGGYTNYADSVKGRFTISRDNSKNTLYLQMNSLRAEDTAVYYCARDGGYYRYVYRYPGDYAFGYWGQGTLVTVSS VL: EIVLTQSPATLSLSPGERATLSCRASQSVSSYLAWYQQKPGQAPRLLIYDASNRATGIPARFSGSGSGTDFTLTISSLEPEDFAVYYCQQRSNWPLTFGQGTKVEIKR",ECL signal,[1],2180 ECL
same,ECL signal,[2],16300 ECL
same,ECL signal,[3],1.1e+06 ECL
same,ECL signal,[4],1.03e+06 ECL
same,binding result,[5],no binding (tested: 5 µg/ml)
same,binding result,[6],no binding (tested: 5 µg/ml)
"DR4B38 (antibody, human IgG2, kappa, V domains shown, also called VH DR4H56 / VL PH9L3) VH: not shown VL: EIVLTQSPATLSLSPGERATLSCRASQSVSSYLAWYQQKPGQAPRLLIYDASNRATGIPARFSGSGSGTDFTLTISSLEPEDFAVYYCQQRSNWPLTFGQGTKVEIKR",ECL signal,[1],148 ECL
same,ECL signal,[2],100 ECL
same,ECL signal,[3],1.24e+06 ECL
same,ECL signal,[4],1.21e+06 ECL
same,binding result,[5],no binding (tested: 5 µg/ml)
same,binding result,[6],no binding (tested: 5 µg/ml)
"DR4B70 (antibody, human IgG2, kappa, V domains shown, also called VH DR4H29 / VL PH9L3) VH: not shown VL: EIVLTQSPATLSLSPGERATLSCRASQSVSSYLAWYQQKPGQAPRLLIYDASNRATGIPARFSGSGSGTDFTLTISSLEPEDFAVYYCQQRSNWPLTFGQGTKVEIKR",ECL signal,[1],1270 ECL
same,ECL signal,[2],3220 ECL
same,ECL signal,[3],1.13e+06 ECL
same,ECL signal,[4],1.08e+06 ECL
same,binding result,[5],no binding (tested: 5 µg/ml)
same,binding result,[6],no binding (tested: 5 µg/ml)
